Residue numbers refer to the chain shown, from its start.
B1: human auto-activating MMP-9 (protein)
chain: APRQRQSTLVLFPGDLRTNLTDRQLAEEYLYRYGYTRVAEMRGESKSLGPALLLLQKQLSLPETGELDSATLKAMRTPRCLVPDLGRFQTFEGDLKWHHHNITYWIQNYSEDLPRAVIDDAFARAFALWSAVTPLTFTRVYSRDADIVIQFGVAEHGDGYPFDGKDGLLAHAFPPGPGIQGDAHFDDDELWSLGKGVVVPTRFGNADGAACHFPFIFEGRSYSACTTDGRSDGLPWCSTTANYDTDDRFGFCPSERLYTQDGNADGKPCQFPFIFQGQSYSACTTDGRSDGYRWCATTANYDRDKLFGFCPTRADSTVMGGNSAGELCVFPFTFLGKEYSTCTSEGRGDGRLWCATTSNFDSDKKWGFCPDQGYSLFLVAAHEFGHALGLDHSSVPEALMYPMYRFTEGPPLHKDDVNGIRHLYGPRPEPEPRPPTTTTPQPTAPPTVCPTGPPTVHPSERPTAGPTGPPSAGPTGPPTAGPSTATTVPLSPVDDACNVNIFDAIAEIGNQLYLFKDGKYWRFSEGRGSRPQGPFLIADKWPALPRKLDSVFEERLSKKLFFFSGRQVWVYTGASVLGPRRLDKLGLGADVAQVTGALRSGRGKMLLFSGRRLWRFDVKAQMVDPRSASEVDRMFPGVPLDTHDVFQYREKAYFCQDRFYWRVSSRSELNQVDQVGYVTYDILQCPED
B2: inactive human MMP-9 (protein)
chain: B1 chain with L81G

Biological target: genetically encoded FRET-based MMP-9 activity biosensor with α-helical linker, P09619
Sequence (P09619 whole entry, looked up): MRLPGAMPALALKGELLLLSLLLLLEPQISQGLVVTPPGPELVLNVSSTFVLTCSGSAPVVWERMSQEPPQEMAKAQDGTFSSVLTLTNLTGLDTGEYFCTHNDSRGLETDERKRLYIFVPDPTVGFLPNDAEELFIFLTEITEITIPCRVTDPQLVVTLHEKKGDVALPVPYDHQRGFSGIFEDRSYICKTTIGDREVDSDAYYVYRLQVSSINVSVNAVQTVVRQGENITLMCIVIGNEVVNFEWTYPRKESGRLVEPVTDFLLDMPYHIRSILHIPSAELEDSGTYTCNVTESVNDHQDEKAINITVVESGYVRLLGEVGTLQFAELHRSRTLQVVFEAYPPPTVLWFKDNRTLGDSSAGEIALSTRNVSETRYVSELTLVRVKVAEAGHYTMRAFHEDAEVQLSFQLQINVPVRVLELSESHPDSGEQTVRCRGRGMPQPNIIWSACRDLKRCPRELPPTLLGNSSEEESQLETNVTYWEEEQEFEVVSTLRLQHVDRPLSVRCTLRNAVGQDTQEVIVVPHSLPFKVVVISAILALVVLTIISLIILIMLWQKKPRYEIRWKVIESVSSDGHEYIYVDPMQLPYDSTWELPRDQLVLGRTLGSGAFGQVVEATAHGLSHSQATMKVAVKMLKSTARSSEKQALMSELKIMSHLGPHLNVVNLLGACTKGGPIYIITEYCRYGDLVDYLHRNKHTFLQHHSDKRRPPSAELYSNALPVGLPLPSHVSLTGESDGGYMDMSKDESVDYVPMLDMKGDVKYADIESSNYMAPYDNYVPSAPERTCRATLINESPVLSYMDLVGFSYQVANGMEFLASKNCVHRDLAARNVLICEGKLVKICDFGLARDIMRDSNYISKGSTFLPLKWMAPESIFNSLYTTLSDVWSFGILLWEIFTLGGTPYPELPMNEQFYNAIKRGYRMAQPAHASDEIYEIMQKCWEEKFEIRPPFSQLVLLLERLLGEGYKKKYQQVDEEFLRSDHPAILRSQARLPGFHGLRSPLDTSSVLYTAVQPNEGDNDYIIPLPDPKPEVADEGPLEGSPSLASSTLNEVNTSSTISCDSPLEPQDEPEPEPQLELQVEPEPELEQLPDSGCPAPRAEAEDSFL

Protein | in vitro cleavage of the biosensor in HEK293 lysate, Western blot with anti-GFP antibody
B1 | The MMP-9 activity biosensor is cleaved in vitro by a human auto-activating MMP-9
B2 | Inactive human MMP-9 does not cleave the biosensor
